In paper PMC3823275:

Biological target: Tat13-Strep-Tactin (HIV-1 | Streptomyces avidinii)
Assay: SDS-PAGE of tetramers after heating

Tat13-Strep-Tactin (designed binder)
stoichiometry N: 4
